Target: the molecule itself
Assay: SAXS

B1: Human CD81 large extracellular loop (CD81 LEL, residues 112-202) (domain or fragment)
chain: GFVNKDQIAKDVKQFYDQALQQAVVDDDANNAKAVVKTFHETLDCCGSSTLTALTTSVLKNNLCPSGSNIISNLFKEDCHQKIDDLFSGKL
  stoichiometry N: 2

Source: publication PMC4126800 (Nature, 2014)
